How the values were obtained:
AMPK [1] = test: AMPK phosphorylation in vivo (skeletal muscle and liver); design: species or system mice; conditions: 30 μg per 10 g body weight, 10 min
Protocol: (§1) Mouse full-length adiponectin was generated as described in the following documents (Nature Med. 8, 1288-1295 (2002); Nature Med. 7, 941-946 (2001); Nature 423, 762-769 (2003)).
(§2) Real-time PCR was carried out according to the method described in the following documents (Nature Med. 13, 332-339 2007); Nature 423, 762-769 (2003); J. Biol. Chem. 281, 8748-8755 (2006)). Total RNA was prepared from cells or tissues by using Trizol (Invitrogen) according to the manufacturer's instructions. Quantification of mRNA was conducted using a real-time PCR method (Nature 423, 762-769 (2003)) with slight modifications. The procedures used for immunoblotting are described in the following documents (Nature Med. 7, 941-946 (2001); J. Biol. Chem. 281, 26602-26614 (2006); J. Biol. Chem. 281, 8748-8755 (2006)). The livers or muscles were freeze-clamped in liquid nitrogen in situ (Nature Med. 7, 941-946 (2001); J. Biol. Chem. 281, 26602-26614 (2006); J. Biol. Chem. 281, 8748-8755 (2006)).

PGC-1α = PGC-1α acetylation in C2C12 myocytes; format: cell-based, mouse; conditions: treatment for 2 hr
Protocol: (§3) The mouse C2C12 myoblasts were grown in 90% Dulbecco's modified high glucose Eagle's medium containing 10% (v/v) fetal bovine serum. When the cells reached 80% confluent, the myoblasts were induced to differentiate into myocytes by replacing the medium with a low serum differentiation medium (98% Dulbecco's modified high glucose Eagle's medium, 2.5% (v/v) horse serum). The medium was changed daily. The C2C12 cells were transfected by using Pofectamine 2000 (Invitrogen) and following the manufacturer's instructions.

C2C12 myocytes = test: Calcium imaging in C2C12 myocytes (fura-2); format: cell-based, mouse
Protocol: C212 myocytes cultured on glass base dishes (IWAKI) were treated with 2.5 μM fura-2/AM for 30 min. Fluorescence was measured with an Aquacosmos Calcium Imaging system (Hamamatsu Photonics). Ligands were delivered through the superfusing Ringer's solution (140 mM NaCl, 5.6 mM KCl, 5 mM HEPES, 2.0 mM sodium pyruvate, 1.25 mM KH2PO4, 2.0 mM CaCl2, 2.0 mM MgCl2, 9.4 mM D-glucose (pH 7.4)). For the calcium chelating experiment, EGTA solution (140 mM NaCl, 5.6 mM KCl, 5 mM HEPES, 2.0 mM sodium pyruvate, 1.25 mM KH2PO4, 2.0 mM MgCl2, 5.0 mM EGTA-2Na, 9.4 mM D-glucose (pH 7.4) was used for the bath solution. Fura-2 fluorescence ratios were calibrated to calcium ion signals.

AdipoR1 = target: T1, AdipoR1 (Mus musculus, UniProt Q91VH1); test: Electrophysiological recording in Xenopus oocytes expressing AdipoR1; format: cell-based
T1 construct: expressed in transfected cells; host or cells: Xenopus oocytes (stage V to VII), cRNA synthesized from linearized modified pSPUTK
T1 sequence (Q91VH1 1-375): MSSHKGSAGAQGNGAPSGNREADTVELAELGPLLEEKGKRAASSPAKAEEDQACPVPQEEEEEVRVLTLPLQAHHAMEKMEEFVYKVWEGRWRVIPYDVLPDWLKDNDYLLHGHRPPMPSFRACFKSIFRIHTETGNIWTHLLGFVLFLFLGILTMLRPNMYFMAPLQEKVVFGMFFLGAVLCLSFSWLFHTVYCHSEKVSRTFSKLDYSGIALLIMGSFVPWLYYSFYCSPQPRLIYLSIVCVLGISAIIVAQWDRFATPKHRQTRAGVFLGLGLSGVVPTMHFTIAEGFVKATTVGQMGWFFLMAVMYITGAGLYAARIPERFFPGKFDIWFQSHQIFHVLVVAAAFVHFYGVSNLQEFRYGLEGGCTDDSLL
Protocol: Stage V to VII oocytes were treated with 2 mg/ml of collagenase S-1 (Nitta gelatin) in calcium ion-free saline solution (82.5 mM NaCl, 2 mM KCl, 1 mM MgCl2, and 5 mM HEPES, pH 7.5) for 1 to 2 hr at room temperature. The resulting oocytes were then microinjected with 50 ng of cRNA for mAdipoR1. The cRNA was synthesized from linearized modified pSPUTK. The injected oocytes were incubated for 3 days at 18° C. in a bath solution (88 mM NaCl, 1 mM KCl, 0.3 mM Ca(NO3)2, 0.4 mM CaCl2, 0.8 mM MgSO4, 2.4 mM […], 15 mM HEPES, pH 7.6) supplemented with 10 μg/ml of penicillin and streptomycin.
Whole cell currents were recorded with a two-electrode voltage clamp technique. Intracellular glass electrodes were filled with 3M KCl. Signals were amplified with an OC-725C amplifier (Warner Instruments), low-pass filtered at 50 Hz, and digitized at 1 kHz. A control bath solution contained 115 mM NaCl, 2.5 mM KCl, 1.8 mM CaCl2, and 10 mM HEPES. It was titrated to pH 7.2 with NaOH. A calcium ion free solution containing 1.8 mM BaCl2 instead of CaCl2 was used. The inward current was monitored at a holding potential of −80 mV. Calcium ion activated Cl^− current was monitored by applying 500-mscc depolarizing pulses of +100 mV and +50 mV from the holding potential of −80 mV. Adiponectin was supplied to the superfusing bath solution via a silicon tube connected to computer-driven solenoid valves. Data acquisition and analysis were carried out using Digidata 1322A and pCLAMP software.

AMPK [2] = test: AMPK phosphorylation in C2C12 myocytes; format: cell-based, mouse; conditions: C2C12 myocytes, adiponectin 30 μg/ml
Protocol: as §3

PGC-1α (Ppargc1a) = PGC-1α (Ppargc1a) expression in C2C12 myocytes; format: cell-based, mouse; conditions: C2C12 myocytes, adiponectin 10 μg/ml 1.5 hours
Protocol: as §2, §3

CaMKI = CaMKI phosphorylation in skeletal muscle in vivo; design: species or system mice; conditions: 30 μg per 10 g body weight, 5 min
Description: as §1

calcium-ion activated Cl- current response (AdipoR1; control oocytes without AdipoR1 cRNA): not observed | inward current response (AdipoR1; oocytes expressing AdipoR1, adiponectin 30 μg/ml, holding potential -80 mV): induced inward current responses | intracellular calcium levels by calcium-ion activated Cl- current (AdipoR1; oocytes injected with AdipoR1 cRNA, adiponectin 30 μg/ml): increase in intracellular calcium levels
B1: adiponectin (protein, UniProt Q60994 1-247, looked up)
chain: MLLLQALLFLLILPSHAEDDVTTTEELAPALVPPPKGTCAGWMAGIPGHPGHNGTPGRDGRDGTPGEKGEKGDAGLLGPKGETGDVGMTGAEGPRGFPGTPGRKGEPGEAAYVYRSAFSVGLETRVTVPNVPIRFTKIFYNQQNHYDGSTGKFYCNIPGLYYFSYHITVYMKDVKVSLFKKDKAVLFTYDQYQEKNVDQASGSVLLHLEVGDQVWLQVYGDGDHNGLYADNVNDSTFTGFLLYHDTN
modifications: full-length
notes: adipokine, internal ligand of adiponectin receptor 1; recombinant murine full-length adiponectin
phosphorylation of AMPK in liver (AMPK [1]; both genotypes): increased the phosphorylation of AMPK in the liver of both genotypes | phosphorylation of AMPK in skeletal muscle (AMPK [1]; control littermates): increased the phosphorylation of AMPK in the muscle of control littermates | PGC-1α acetylation (PGC-1α): decreased PGC-1α acetylation | dose dependence of calcium response (C2C12 myocytes): dose-dependent responses | intracellular calcium ion concentration (fura-2) (C2C12 myocytes; adiponectin 30 μg/ml): increased an intracellular calcium ion concentration | phosphorylation of AMPK α-subunits at Thr 172 (AMPK [2]): increased the phosphorylation of the AMPK α-subunits at Thr 172 | PGC-1α expression (PGC-1α (Ppargc1a)): increase in PGC-1α expression | phosphorylation of CaMKI in skeletal muscle in vivo (CaMKI): significantly increased

— US20130274185A1, “Pharmaceutical for Pseudo-Exercise Therapy” (THE UNIVERSITY OF TOKYO, priority 2010, published 2013)
